According to US20160053277A1, “Compositions Having Dicamba Decarboxylase Activity and Methods of Use” (PIONEER HI-BRED INTERNATIONAL, INC., priority 2013, published 2016):

Assays:
[1] = Saturation mutagenesis of SEQ ID NO:109: dicamba decarboxylation activity of point mutants (carbon dioxide released); settings: decarboxylation activity (carbon dioxide released) of point mutant compared with unmutated backbone protein; backbone SEQ ID NO: 109
[2] = Shuffled variant libraries: 14CO2 capturing assay in 384-well format; settings: decarboxylation activity (carbon dioxide released) compared with unmutated backbone protein SEQ ID NO 133 (DDEC0201)
[3] = Dicamba decarboxylation activity of computationally designed protein variants and their parents; settings: for dicamba decarboxylase activity (native protein or designed variant): statement in the description; for Percent Activity Improvement Over Parent: parent = 100
[4] = 14C assay with IPTG-induced recombinant E. coli cells: 14CO2 captured from [14C]-carboxyl-labeled dicamba; settings: for Enzymatic Detection level: dicamba decarboxylation activity of the protein of the given SEQ ID NO, High / Low / No; for Dicamba Decarboxylase Activity: induced recombinant E. coli cells, [14C]-carboxyl-labeled dicamba, 14CO2 capture
[5] = Product analysis of reactions of purified His-tag protein with dicamba (14C assay, GC/MS, LC-MS/MS); type: biochemical; settings: for enzymatic reaction products detected: purified protein incubated with dicamba
Protocol: Alternatively, dicamba decarboxylase activity can be monitored by measuring decarboxylation products other than CO2 using product detection methods. The decarboxylation product of dicamba, 2,5-dichloro anisole or 2,5-DCA (FIG. 1C), is a volatile compound with a flash point of 21° C. To capture this volatile compound for detection, 140 ul of toluene solution is added on top of 1 ml reaction mixture to form a trapping layer in a 1.5 ml eppendorf tube. […] The reaction is kept still at room temperature overnight before being vortex mixed and centrifuged at 14,000 rpm for 15 minutes. The top toluene phase is carefully removed using a micropipette and transferred into a 12×32 mm polypropylene vial (Vial 11 mm) from MicroLiter Analytical Supplies, Inc. (catalog number 11-5300-100). The vial is sealed with Crimp seal (11 mm with FEP/Nat Rubber) from MicroLiter Analytical Supplies, Inc. (catalog number 11-0020A) using a E-Z Crimper™ 11 mm from Wheaton Inc. 1 ul of the toluene mixture is taken from the sealed vials and injected in splitless mode into a GC/MS system for sample analysis (Agilent GC/MS system with a 6890A GC, a 5973N MSD and a CTC CombiPAL auto-sampler or with a 7890A GC, a 5975C MSD and an Agilent GC Sampler 80 auto-sampler).

[6] = compared to estimated CO2 formation (100%)

| Molecule | Fold Activity [1] | Fold Activity [2] | Enzymatic Detection level [4] | other results |
| --- | --- | --- | --- | --- |
| 255 (protein, Dicamba decarboxylase variant) MAQGKVALEEHFAIPETLQDSAGFVPGDYWKELQHRLLDIQDTRLRLMDAHGIETMILSLAAVGVQAIPDRRKAIEIARRANDFLAEECAKRPDRFLAFAALPLQDPDAATEELQRCVNDLGFVGALVNGFSQEGDGQTPLYYDLPQYRPFWGEVEKLDVPFYLHPRNPLPQDSRIYDGHPWLLGPTWAFAQETAVHALRLMASGLFDEHPRLNIILGHMGEGLPYMMYRIDHRIAWVHPPPRYPAKRRSMDYFNENFHITTSGNFRTQTLIDAILEIGADRILFSTDWPFENIDHAADWFNATSIAEADRVKIGRTNARRLFKLDGD | 1.1 | 1.0 |  |  |
| 257 (protein, Dicamba decarboxylase variant) MAQGKVALEEHFAIPETLQDSAGFVPGDYWKELQHRLLDIQDTRLKLMDAHGIETMILSLAAPAVQAIPDRRKAIEIARRANDFLAEECAKRPDRFLAFAALPLQDVDAATEELQRCVNDLGFVGALVNGFSVEGDGQTPLYYDLPQYRPFWGEVEKLDVPFYLHPRNPLPQDSRIYDGHPWLLGPTWAFAQETAVHALRLMASGLFDEHPRLNIILGHMGEGLPYMMYRIDHRIAWVHEPPRYPAKRRFMDYFLENFHITTSGNFRTQTLIDAILEIGADRILFSTDWPFENIDHAADWFNATSIAEADRVKIGRTNARRLFKLDLD | 2.4 | 1.6 |  |  |
| 100 (protein, listed as Reinekea blandensis) MAIIDCHGHYTTTPKGVEDYRNAQKAAVAKDPSFKGEKGQVVVSDDEIRESIENNQLKMQRERGTDLTIFSPRASWMGHHIGNEYTSQFWTEHQNDLIRRVCDLFPKNFAPVAQLPQSPGVDPAKSVPEIVRTVEQMGFIGINLNPDPSGGYWKDTSLADRAFYPIYEKMVEYDIPAMIHVSAACNDCFHTTGSHYLGADTTGFQQLIMSDVFKDFPSLKIIIPHGGGAVPYHWGRFRGLMQDQGYAPLEESALKNIYFDTCVYHQRGIDLLLDIVPTQNILFASEMIGAVRGIDPETGHNFDDTKRYIDNNTALNAEEKAMIFEGNARRVFSRLKTD | 2.5 |  | No | dicamba decarboxylase activity (native protein or designed variant) [3]: Neither of the native proteins have dicamba decarboxylase activity; Dicamba Decarboxylase Activity [4]: No |
| 117 (protein, Dicamba decarboxylase variant clone: DC.5.008) MAKKPRIDMHSHFFPRISEQEAAKFDANHAPWLQVSAKGDTGSIMMGKNNFRPVYQALWDPAFRIEEMDAQGVDVQVTCATPVMFGYTWEANKAAQWAERMNDFALEFAAHNPQRIKVLAQVPLQDLDLACKEASRAVAAGHLGIQIGNHLGDKDLDDATLEAFLTHCANEDIPILVHPWDMMGGQRMKKWMLPVLVAAPAEVQLAILSLILSGAFERIPKSLKICFAGGGGSFAFLLGIVDLAWRHRDIVREDCPRPPSEYVDRFFVDSLVFNPGALELLVSVMGEDRVMLGSDYPFPTGEQKIGGLVLSSNLGESAKDKIISGNASKFFNINV | 1.8 |  | High | enzymatic reaction products detected [5]: 2,5-DCA was detected; dicamba decarboxylase activity (native protein or designed variant) [3]: have dicamba decarboxylase activity |
| 260 (protein, Dicamba decarboxylase variant) MAQGKVALEEHFAIPETLQDSAGFVPGDYWKELQHRLLDIQDTRLKLMDAHGIETMILSLAAPAVQAIPDRRKAIEIARRANDFLAEECAKRPDRFLAFAALPMQDPDAASEELQRCVNDLGFVGALVNGFSVEGDGQTPLYYDLPQYRPFWGEVEKLDVPFYLHPRNPLPQDSRIYDGHPWLLGPTWAFAQETAVHALRLMASGLFDEHPRLNIILGHLGEGLPYMMYRIDHRIAWVKLPPRYPAKRRFMDYFNENFHITTSGNFRTQTLIDAILEIGADRILFSTDWPFENIDHAADWFNATSIAEADRVKIGRTNAPSSVQTG | 1.7 | 1.5 |  |  |
| 116 (protein, Dicamba decarboxylase variant clone: DC.30.007) MAQGKVALEEHFAIPETLQDAAGFVPGDYWKELQHRLLDIQDRRVRLMDEHGIETMILSLNAPAVQAIADSTRANETARRANDFLAEQVAKQPTRFRGFAALPMQDPELAARELERCVKELGFVGALVNGFSQDNRSAVPLYYDMAQYWPFWETVQALDVPFYLHPRNPLPSDARIYDGHAWLLGPTWAFGQETAVHALRLMGSGLFDKYPALKIILGHMGEGLPYSMWRIDHRNAWIKTTPKYPAKRKIVDYFNENFYLTTSGNFRTQTLIDAILEIGADRILFSTDWPFENIDHAADWFENTSISEADRKKIGWGNAQNLFKLNR | 1.5 |  | High | Percent Activity Improvement Over Parent [3]: 220%; dicamba decarboxylase activity (native protein or designed variant) [3]: displays an increase in dicamba decarboxylase activity |
| 259 (protein, Dicamba decarboxylase variant) MAQGKVALEEHFAIPETLQDSAGFVPSEYLKELQHRLLDIQDTRLKLMDAHGIETMILSLAAPAVQAIPDRRKAIEIARRANDFLAEECAKRPDRFLAFAALPMQDPDAATEELQRCVNDLGFVGALVNGFSVEGDGQTPLYYDLPQYRPFWGEVEKLDVPFYLHPRNPLPQDSRIYDGHPWLLGPTWAFAQETAVHALRLMASGLFDEHPRLNIILGHMGEGLPYMMYRIDHRIAWVHEPPRYPAKRRFMDYFNENFHITTSGNFRTQTLIDAILEIGADRILFSTDWPFENIDHATAWFNATSIAEADRVKIGRTNARRLFKLDGD | 2.4 | 1.8 |  |  |
| 1 (protein, listed as Rhizobium sp.) MAQGKVALEEHFAIPETLQDSAGFVPGDYWKELQHRLLDIQDTRLKLMDAHGIETMILSLNAPAVQAIPDRRKAIEIARRANDVLAEECAKRPDRFLAFAALPLQDPDAATEELQRCVNDLGFVGALVNGFSQEGDGQTPLYYDLPQYRPFWGEVEKLDVPFYLHPRNPLPQDSRIYDGHPWLLGPTWAFAQETAVHALRLMASGLFDEHPRLNIILGHMGEGLPYMMWRIDHRNAWVKLPPRYPAKRRFMDYFNENFHITTSGNFRTQTLIDAILEIGADRILFSTDWPFENIDHASDWFNATSIAEADRVKIGRTNARRLFKLDGA | 1.2 |  | High | relative amount of 2,5-DCA [5, 6]: < 1%; relative amount of 2,5-DCP [5, 6]: > 80%; relative amount of 4-chloro-3-methoxy phenol [5, 6]: < 10%; enzymatic reaction products detected [5]: four enzymatic reaction products; Percent Activity Improvement Over Parent [3]: 100%; decarboxylation activity of dicamba ([4]; among the 108 sequences tested, recombinant E. coli cells): showed decarboxylation activity of dicamba; Dicamba Decarboxylase Activity [4]: High |
| 256 (protein, Dicamba decarboxylase variant) MAQGKVALEEHFAIPETLQDSAGFVPGDYWKELQHRLLDIQDTRLNLMDAHGIETMILSLAAPAVQAIPDRRKAIEIARRANDFLAEECAKRPDRFLAFAALPLQDPDAATEELQRCVNDLGFVGALVNGFSQEGDGQTPLYYDLPQYRPFWGEVEKLDVPFYLHPRNPLPQDSRIYDGHPWLLGPTWAFAQETAVHALRLMASGLFDEHPRLNIILGHMGEGLPYMMYRIDHRIAWVHEPPRYPAKRRFMDYFNENFHITTSGNFRTQTLIDAILEIGADRILFSTDWPFENIDHAADWFNATSIAEADRVKIGRTNARRLFKLDVD | 1.7 | 1.0 |  |  |
| 261 (protein, Dicamba decarboxylase variant) MAQGKVALEEHFAIPETLQDSAGFVPGDYWKELQHRLLDIQDTRLKLMDAHGIETMILSLAAPAVQAIPDRVEAIEIARRANDFLAEECAKRPDRFLAFAALPLQDPDAATEELQRCVNDLGFVGALVNGFSQEGDGQTPLYYDLPQYRPFWGEVEKLDVPFYLHPRNPLPQDSRIYDGHPWLLGPTWAFAQETAVHALRLMASGLFDEHPRLNIILGHMGEGLPYMMYRIDHRIAWVHEPPRYPAKRRFMDYFNENFHITTSGNFRTQTLIDAILEIGADRILFSTDWPFENIDHAADWFNATSIAEADRVKIGRTNARRLFKLDGA | 2.3 | 1.2 |  |  |
| 258 (protein, Dicamba decarboxylase variant) MAQGKVALEEHFAIPETLQDSAGFVPGDYWKELQHRLLDIQDTRLRLMDAHGIETMILSLAAPAVQAIPDRRKAIEIARRANDFLAEECAKRPDRFLAFAALPLQDPDAATEELQRTVNDLGFVGALVNGFSQEGDGQTPLYYDLPQYRPFWGEVEKLDVPFYLHPRNPLPQDSRIYDGHPWLLGPTWAFAQETAVHALRLMASGLFDEHPRLNIILGHMGEGLPYMMYRIDHRIAWVHEPPRYPAKRRFMDYFNENFHITTSGNFRTQTLIDAILEIGADRILFSTDWPFENIDHAADWFNATSIAEADRVKIGRTNARRLFKLDGA | 2.8 | 1.2 |  |  |
